In US20210115138A1 (WUXI BIOLOGICS IRELAND, published 2021):

T1: mouse PD-1 protein (mouse, UniProt Q02242 25-167, limits assumed)
T1 sequence (looked up): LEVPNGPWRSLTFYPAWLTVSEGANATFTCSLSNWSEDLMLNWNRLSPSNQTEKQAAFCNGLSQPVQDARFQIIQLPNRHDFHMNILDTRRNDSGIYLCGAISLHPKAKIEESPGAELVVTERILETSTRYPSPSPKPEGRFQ

T2: mouse Fc-tagged human LAG-3 protein (human, UniProt P18627 23-450)
T2 construct: extracellular domain; also called mouse Fc-tagged LAG-3 protein; not shown: mouse Fc tag
T2 sequence (looked up): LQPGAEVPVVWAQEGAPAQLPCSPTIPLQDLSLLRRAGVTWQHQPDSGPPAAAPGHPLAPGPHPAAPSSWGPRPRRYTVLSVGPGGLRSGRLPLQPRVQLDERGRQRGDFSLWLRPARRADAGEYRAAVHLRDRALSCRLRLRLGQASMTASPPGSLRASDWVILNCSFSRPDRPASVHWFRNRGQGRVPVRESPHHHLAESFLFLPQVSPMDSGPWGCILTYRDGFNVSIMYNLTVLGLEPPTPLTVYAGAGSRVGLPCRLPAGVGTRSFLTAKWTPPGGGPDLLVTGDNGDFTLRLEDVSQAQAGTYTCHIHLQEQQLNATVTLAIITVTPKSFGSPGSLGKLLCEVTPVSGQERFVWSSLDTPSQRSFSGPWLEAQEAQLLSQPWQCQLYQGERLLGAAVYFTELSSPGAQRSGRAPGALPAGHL

T3: human LAG-3 on cells (human, UniProt P18627 23-525)
T3 construct: whole, on cells; also called cell surface human LAG-3; human LAG-3 expressing 293F cells
T3 sequence (looked up): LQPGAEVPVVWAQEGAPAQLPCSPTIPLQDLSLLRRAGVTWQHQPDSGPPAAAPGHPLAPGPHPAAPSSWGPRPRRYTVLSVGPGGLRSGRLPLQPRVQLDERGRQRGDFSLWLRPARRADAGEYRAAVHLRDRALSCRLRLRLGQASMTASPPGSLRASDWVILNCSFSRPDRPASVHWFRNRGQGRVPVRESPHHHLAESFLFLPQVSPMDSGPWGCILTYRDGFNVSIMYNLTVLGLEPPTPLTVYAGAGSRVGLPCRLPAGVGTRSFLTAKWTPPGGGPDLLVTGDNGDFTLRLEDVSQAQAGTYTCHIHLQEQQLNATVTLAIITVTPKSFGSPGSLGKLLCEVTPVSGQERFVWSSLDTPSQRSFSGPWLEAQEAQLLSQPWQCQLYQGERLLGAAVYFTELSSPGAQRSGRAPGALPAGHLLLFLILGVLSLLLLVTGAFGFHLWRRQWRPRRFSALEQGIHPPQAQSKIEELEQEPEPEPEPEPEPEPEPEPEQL

T4: Human LAG-3 without tag (human, UniProt P18627 23-450)
T4 construct: extracellular domain; also called untagged LAG-3 ECD protein
T4 sequence (looked up): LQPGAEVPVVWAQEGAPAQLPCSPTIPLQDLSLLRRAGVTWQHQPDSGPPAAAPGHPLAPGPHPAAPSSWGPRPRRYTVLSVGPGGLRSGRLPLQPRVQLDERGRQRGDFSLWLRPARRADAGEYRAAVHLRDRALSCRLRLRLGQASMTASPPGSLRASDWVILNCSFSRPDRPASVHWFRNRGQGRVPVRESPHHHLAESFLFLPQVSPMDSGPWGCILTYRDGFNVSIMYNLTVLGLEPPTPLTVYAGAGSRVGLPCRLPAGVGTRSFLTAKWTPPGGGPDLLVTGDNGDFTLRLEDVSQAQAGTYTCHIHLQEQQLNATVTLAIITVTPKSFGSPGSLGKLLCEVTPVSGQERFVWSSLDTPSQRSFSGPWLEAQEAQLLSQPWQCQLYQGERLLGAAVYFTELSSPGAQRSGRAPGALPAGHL


Tests used:
[1] = target: T5, cynomolgus LAG-3 on cells (cynomolgus); test: flow cytometry on cynomolgus LAG-3 expressing 293F cells
T5 construct: whole, on cells; also called cell surface cynomolgus LAG-3
Experimental: (§1) MFI of the cells was measured by flow cytometry and analyzed by FlowJo.

[2] = target: T1, mouse PD-1 protein; test: ELISA, antibody coated on the plate, mouse PD-1 (His tag on the sheet) added at 0.25, 2.5 and 25 nM, OD450
Experimental: After blocking and washing, various concentrations of mouse PD-1 protein were added to the plates and incubated at room temperature for 1 hour. The plates were then washed and subsequently incubated with HRP-labeled goat anti-mouse IgG antibody for 1 hour. After washing, TMB substrate was added and the color reaction was stopped by 2M HCl. The absorbance at 450 nm was read using a microplate reader.

[3] = target: T2, mouse Fc-tagged human LAG-3 protein; test: flow cytometry; blocking of mFc-LAG-3 binding to MHC-II on Raji cells
Experimental: The mixture was transferred into the 96-well plates seeded with Raji cells which express MHC-II on the surface. […] The MFI was evaluated by flow cytometry and analyzed by the software FlowJo.

[4] = target: T6, human CTLA-4 protein (human, UniProt P16410 36-161); test: ELISA, human CTLA-4 coated at 1 ug/mL, antibody added at 0.67 and 6.7 nM, OD450
T6 construct: extracellular domain
Experimental: (§2) Cross-reactivity to human CD4, CTLA-4 or CD28 was measured by ELISA. Plates were coated with human CD4, CTLA-4 or CD28 at 1 μg/mL overnight at 4° C. […] The plates were then washed and subsequently incubated with corresponding secondary antibody for 60 min. After washing, TMB substrate was added and the color reaction was stopped by 2M HCl.

[5] = target: T7, mouse Fc-tagged human PD-1 protein (human, UniProt Q15116 25-170); test: ELISA; antibody coated, mFc-tagged PD-1 titrated
T7 construct: extracellular domain; also called mouse Fc-tagged PD-1 protein; not shown: mouse Fc tag

[6] = target: T3, human LAG-3 on cells; test: flow cytometry on human LAG-3 expressing 293F cells
Experimental: (§3) MFI of the cells was measured by flow cytometry and analyzed by FlowJo (version 7.6.1).

[7] = target: T7, mouse Fc-tagged human PD-1 protein; test: dual-binding ELISA; mFc-PD-1 coated, antibody titrated, detected by His-tagged LAG-3 and anti-His-HRP
[8] = target: T8, His-tagged human PD-1 protein (MW: 40 KD) (human, UniProt Q15116 25-167); test: SPR Biacore 8K; antibody captured on anti-human Fc, His-PD-1 injected
T8 construct: not shown: His tag
Experimental: Binding affinity of the bispecific antibodies to the antigen were determined by SPR assay using Biacore 8K. PD-1×LAG-3 antibodies were captured on an anti-human IgG Fc antibody immobilized CMS sensor chip (GE).
(§4) The sensorgrams of blank surface and buffer channel were subtracted from the test sensorgrams. The experimental data was fitted by 1:1 model using Langmiur analysis.

[9] = target: T4, Human LAG-3 without tag; test: SPR; antibody immobilized, untagged human LAG-3 injected, single-cycle kinetics
Experimental: The chip was regenerated with 10 mM glycine (pH 1.5).
as §4

[10] = target: T3, human LAG-3 on cells; test: cell-based or functional assay
[11] = target: T2, mouse Fc-tagged human LAG-3 protein; test: ELISA; antibody coated, mFc-tagged LAG-3 titrated
Experimental: The plates were then washed and subsequently incubated with HRP-labeled goat anti-mouse IgG antibody for 1 hour. After washing, TMB substrate was added and the color reaction was stopped by 2M HCl. The absorbance at 450 nm was read using a microplate reader.

[12] = target: T9, human PD-1 on cells (human, UniProt Q15116 25-288); test: flow cytometry; competition with mFc-PD-L1 on PD-1 expressing CHO-S cells
T9 construct: whole, on cells; also called cell surface human PD-1; PD-1 expressing CHO-S cells
Experimental: The mixture was transferred into the 96-well plates seeded with PD-1 expressing CHO-S cells. […] The MFI was evaluated by flow cytometry and analyzed by the software FlowJo.

[13] = target: T10, cynomolgus PD-1 on cells (cynomolgus, UniProt B0LAJ3 25-288); test: flow cytometry on cynomolgus PD-1 expressing 293F cells
T10 construct: also called cell surface cynomolgus PD-1
Experimental: as §1

[14] = target: T11, human CD28 protein (human, UniProt P10747 19-152); test: ELISA, human CD28 coated at 1 ug/mL, antibody added at 0.67 and 6.7 nM, OD450
T11 construct: extracellular domain
Experimental: as §2

[15] = target: T9, human PD-1 on cells; test: flow cytometry on human PD-1 expressing cells
Experimental: as §3

[16] = target: human CD4 protein (human, UniProt P01730 26-390, limits assumed); test: ELISA, human CD4 coated at 1 ug/mL, antibody added at 0.67 and 6.7 nM, OD450
Experimental: as §2

[17] = target: T9, human PD-1 on cells; test: cell-based or functional assay
[18] = target: T7, mouse Fc-tagged human PD-1 protein; test: dual-binding ELISA; mFc-PD-1 coated, antibody titrated, detected by His-tagged LAG-3 and anti-His-HRP; dual binding: PD-1 and LAG-3 protein together

T9 sequence (Q15116 25-288): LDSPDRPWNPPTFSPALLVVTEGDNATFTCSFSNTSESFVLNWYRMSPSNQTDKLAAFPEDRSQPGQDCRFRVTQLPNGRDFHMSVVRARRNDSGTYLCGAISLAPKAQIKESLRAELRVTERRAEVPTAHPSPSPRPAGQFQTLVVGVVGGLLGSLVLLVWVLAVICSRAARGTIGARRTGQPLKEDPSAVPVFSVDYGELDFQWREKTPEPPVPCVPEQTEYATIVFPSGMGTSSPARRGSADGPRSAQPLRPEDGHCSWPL
T8 sequence (Q15116 25-167 limits assumed): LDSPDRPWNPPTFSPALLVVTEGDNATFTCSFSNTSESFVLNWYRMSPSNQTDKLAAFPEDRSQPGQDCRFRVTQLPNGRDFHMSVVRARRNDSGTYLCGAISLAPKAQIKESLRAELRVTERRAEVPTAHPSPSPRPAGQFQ
T7 sequence (Q15116 25-170): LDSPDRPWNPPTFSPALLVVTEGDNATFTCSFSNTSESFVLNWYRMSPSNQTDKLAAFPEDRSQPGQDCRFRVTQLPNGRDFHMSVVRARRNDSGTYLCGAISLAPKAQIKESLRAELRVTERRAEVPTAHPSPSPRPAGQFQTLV
T6 sequence (P16410 36-161): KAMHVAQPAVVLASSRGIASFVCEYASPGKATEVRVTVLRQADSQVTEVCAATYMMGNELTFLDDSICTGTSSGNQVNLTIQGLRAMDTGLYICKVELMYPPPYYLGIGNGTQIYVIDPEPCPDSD
T10 sequence (B0LAJ3 entry or part of it limits assumed): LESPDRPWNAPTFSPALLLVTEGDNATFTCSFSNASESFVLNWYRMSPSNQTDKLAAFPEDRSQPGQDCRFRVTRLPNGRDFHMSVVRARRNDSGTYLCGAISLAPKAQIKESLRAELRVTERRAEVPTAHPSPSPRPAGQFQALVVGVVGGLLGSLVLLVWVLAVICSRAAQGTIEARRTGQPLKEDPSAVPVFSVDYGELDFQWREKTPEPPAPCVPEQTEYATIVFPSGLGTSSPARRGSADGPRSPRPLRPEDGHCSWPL

Binder	EC50 [1] [nM]	binding result [2]	IC50 [3] [nM]	binding result [4]	EC50 [5] [nM]	EC50 [6] [nM]	Kd [8] [nM]	koff [8] [s⁻¹]	kon [8] [M⁻¹ s⁻¹]	Kd [9] [nM]	koff [9] [s⁻¹]	kon [9] [M⁻¹ s⁻¹]	EC50 of IL-2 pathways enhancement (luciferase reporter) [10] [nM]	EC50 [11] [nM]	IC50 [12] [nM]	EC50 [13] [nM]	binding result [14]	EC50 [15] [nM]	binding result [16]	EC50 of NFAT pathways enhancement (luciferase reporter) [17] [nM]	also measured
W365-U6T1.G15-1.uIgG4.SP (bispecific antibody, Anti-PD-1 (W3055-1.153.7) human IgG4 S228P; also called W365-G15) heavy: not shown light: SYELTQPLSVSVALGQTARITCGGDNIGNKDVHWYQQKPGQAPVLVIYRDSNRPSGIPEGFSGSNSGNTATLTISRAQAGDEADYYCQVWDSIWVFGGGTKLTVLGQPKAAPSVTLFPPSSEELQANKATLVCLISDFYPGAVTVAWKADSSPVKAGVETTTPSKQSNNKYAASSYLSLTPEQWKSHKSYSCQVTHEGSTVEKTVAPTECS	20.9	no binding (tested: 25 nM (mouse PD-1))	1.68	no binding (tested: 6.7 nM)	0.07	5.88	2.16	0.000592	275000	0.0265	1.89e-05	714000	0.32	0.32	1.09	0.31	no binding (tested: 6.7 nM)	1.34	no binding (tested: 6.7 nM)	0.41	EC50 [7]: 0.05 nM
W365-U6T1.G14-1.uIgG4.SP (bispecific antibody, Anti-PD-1 (W3055-1.153.7) human IgG4 S228P; also called W365-G14; W365G-14) heavy: not shown light: SYELTQPLSVSVALGQTARITCGGDNIGNKDVHWYQQKPGQAPVLVIYRDSNRPSGIPEGFSGSNSGNTATLTISRAQAGDEADYYCQVWDSIWVFGGGTKLTVLGQPKAAPSVTLFPPSSEELQANKATLVCLISDFYPGAVTVAWKADSSPVKAGVETTTPSKQSNNKYAASSYLSLTPEQWKSHKSYSCQVTHEGSTVEKTVAPTECSGGGGSGGGGSQLQLQESGPGLVKPSETLSLTCTVSGDSISSTSYYWGWIRQPPGKGLEWIGSFYYSGSTYYNPSLKSRVTISVDTSKNQFSLKLNSVTAADTAVYYCARMQLWSYDVDVWGQGTTVTVSSGGGGSGGGGSGGGGSQSALTQPASVSGSPGQSITISCTGTSSDVGGYDYVAWYQQHPGKVPKLMIYDVSERPSGVSNRFSGSKSGNTASLTISGLQAEDEADYYCSSYTSTTTLVVFGGGTKLSVL	6.5	no binding (tested: 25 nM (mouse PD-1))	2.2	no binding (tested: 6.7 nM)	0.07	2.57	2.46	0.000695	283000	< 0.0261	< 1e-05	383000	0.92	0.27	1.01	0.38	no binding (tested: 6.7 nM)	1.32	no binding (tested: 6.7 nM)	0.4	EC50 [18]: 0.04 nM
